According to paper PMC9262799, “The first step into phenolic metabolism in the hornwort Anthoceros agrestis: molecular and biochemical characterization of two phenylalanine ammonia-lyase isoforms” (Planta, 2022):

What was measured:
Type in all cases: biochemical, Anthoceros agrestis
[1] = system: T1, N[C@@H](Cc1ccc(O)cc1)C(=O)O; assay: HPLC of 4-coumaric acid formed, Michaelis-Menten fit; details: boric acid/sodium tetraborate buffer pH 8.8, 36 °C, 10 min, 0-9.6 mM Tyr
T1 construct: full-length, 752 residues (81,895 Da), N-terminal 6xHis-tag kept (84,058 Da with tag), pET15b, E. coli SoluBL21, Ni-NTA; cDNA from suspension culture; PALs mostly homotetramers, oligomer not measured here
Source text: HPLC of 4-coumaric acid formed, Michaelis-Menten fit on AaPAL1

[2] = system: T2, N[C@@H](Cc1ccccc1)C(=O)O; assay: HPLC of t-cinnamic acid formed, Michaelis-Menten fit; details: boric acid/sodium tetraborate buffer pH 8.8, 36 °C, 10 min, 1-500 µM Phe
T2 construct: full-length, 752 residues (81,895 Da), N-terminal 6xHis-tag kept (84,058 Da with tag), pET15b, E. coli SoluBL21, Ni-NTA; cDNA from suspension culture; PALs mostly homotetramers, oligomer not measured here
Source text: HPLC of t-cinnamic acid formed, Michaelis-Menten fit on AaPAL1

[3] = system: T3, N[C@@H](Cc1ccc(O)cc1)C(=O)O; assay: HPLC of 4-coumaric acid formed, Michaelis-Menten fit; details: boric acid/sodium tetraborate buffer pH 8.8, 36 °C, 15 min, 0-9.6 mM Tyr
T3 construct: full-length, 753 residues (81,704 Da), N-terminal 6xHis-tag kept (83,867 Da with tag), pET15b, E. coli SoluBL21, Ni-NTA; cDNA from suspension culture; PALs mostly homotetramers, oligomer not measured here
Source text: HPLC of 4-coumaric acid formed, Michaelis-Menten fit on AaPAL2

[4] = system: T4, N[C@@H](Cc1ccccc1)C(=O)O; assay: HPLC of t-cinnamic acid formed, Michaelis-Menten fit; details: boric acid/sodium tetraborate buffer pH 8.8, 36 °C, 4 min, 1-500 µM Phe
T4 construct: full-length, 753 residues (81,704 Da), N-terminal 6xHis-tag kept (83,867 Da with tag), pET15b, E. coli SoluBL21, Ni-NTA; cDNA from suspension culture; PALs mostly homotetramers, oligomer not measured here
Source text: HPLC of t-cinnamic acid formed, Michaelis-Menten fit on AaPAL2

Chain of AaPAL1 (Anthoceros agrestis) (chain, as listed by the source): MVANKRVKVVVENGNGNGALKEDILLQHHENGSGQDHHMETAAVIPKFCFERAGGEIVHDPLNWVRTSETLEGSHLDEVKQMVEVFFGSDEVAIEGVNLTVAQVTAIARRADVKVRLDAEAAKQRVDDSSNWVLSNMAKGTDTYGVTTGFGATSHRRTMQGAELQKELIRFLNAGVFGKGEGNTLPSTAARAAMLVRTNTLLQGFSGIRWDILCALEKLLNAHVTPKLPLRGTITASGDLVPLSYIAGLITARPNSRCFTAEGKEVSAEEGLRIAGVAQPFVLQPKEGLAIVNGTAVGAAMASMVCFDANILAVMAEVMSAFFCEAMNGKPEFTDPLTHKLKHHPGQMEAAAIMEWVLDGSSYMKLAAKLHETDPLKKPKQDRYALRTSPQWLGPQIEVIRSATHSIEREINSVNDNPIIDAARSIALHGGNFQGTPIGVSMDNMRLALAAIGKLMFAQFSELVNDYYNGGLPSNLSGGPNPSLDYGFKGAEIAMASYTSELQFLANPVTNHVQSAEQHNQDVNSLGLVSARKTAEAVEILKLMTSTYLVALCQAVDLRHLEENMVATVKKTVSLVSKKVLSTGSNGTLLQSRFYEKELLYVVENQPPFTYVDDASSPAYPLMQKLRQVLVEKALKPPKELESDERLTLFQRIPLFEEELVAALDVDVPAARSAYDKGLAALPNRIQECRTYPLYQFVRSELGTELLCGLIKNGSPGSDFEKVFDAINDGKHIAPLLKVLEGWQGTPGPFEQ
Chain of AaPAL2 (Anthoceros agrestis) (chain, as listed by the source): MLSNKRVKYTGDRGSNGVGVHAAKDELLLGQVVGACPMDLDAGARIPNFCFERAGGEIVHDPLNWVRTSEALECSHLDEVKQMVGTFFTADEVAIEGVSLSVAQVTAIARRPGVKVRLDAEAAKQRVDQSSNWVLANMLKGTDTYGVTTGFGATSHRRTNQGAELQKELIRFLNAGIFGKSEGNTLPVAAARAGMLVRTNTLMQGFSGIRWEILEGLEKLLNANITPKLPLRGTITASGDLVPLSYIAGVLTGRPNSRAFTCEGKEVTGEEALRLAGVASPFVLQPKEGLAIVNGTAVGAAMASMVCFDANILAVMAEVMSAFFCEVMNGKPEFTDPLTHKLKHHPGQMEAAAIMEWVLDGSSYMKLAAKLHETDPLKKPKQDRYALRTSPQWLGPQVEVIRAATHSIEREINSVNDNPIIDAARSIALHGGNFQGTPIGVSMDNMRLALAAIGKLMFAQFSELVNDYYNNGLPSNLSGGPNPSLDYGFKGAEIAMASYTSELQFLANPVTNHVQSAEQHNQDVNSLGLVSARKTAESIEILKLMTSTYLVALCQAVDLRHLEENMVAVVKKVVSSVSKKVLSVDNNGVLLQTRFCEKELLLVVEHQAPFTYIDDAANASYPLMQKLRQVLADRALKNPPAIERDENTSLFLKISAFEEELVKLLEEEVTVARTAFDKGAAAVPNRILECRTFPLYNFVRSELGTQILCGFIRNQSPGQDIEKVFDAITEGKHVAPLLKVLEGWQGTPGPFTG

In the case of AaPAL1 (Anthoceros agrestis), the Km [1] is reported as 3308 ± 987 µM, the Vmax [1] is reported as 0.058 µmol/min/mg and the kcat [1] is reported as 0.081 s⁻¹. For the same substance, the kcat/Km [1] was 24.5 M⁻¹ s⁻¹, the Km [2] was 39 ± 15 µM and the Vmax [2] was 0.252 µmol/min/mg. It also gave a kcat [2] of 0.353 s⁻¹ and a kcat/Km [2] of 9050 M⁻¹ s⁻¹.

With AaPAL2 (Anthoceros agrestis) the Km [3] was 3526 ± 617 µM, the Vmax [3] was 0.0296 µmol/min/mg and the kcat [3] was 0.041 s⁻¹. It also gave a kcat/Km [3] of 11.6 M⁻¹ s⁻¹, a Km [4] of 18 ± 4 µM and a Vmax [4] of 0.206 µmol/min/mg. The kcat [4] was 0.288 s⁻¹ and the kcat/Km [4] was 16000 M⁻¹ s⁻¹.
